{"source": "the nanobody polyreactivity screen of Harvey et al. (2022)"}
{"experiment": "yeast display, Sf9 membrane polyspecificity reagent, FACS + sequencing; frameworks hold sequencing errors", "how_it_was_run": "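Sorting gates, low and high (top ~1%), were placed on anti-HA fluorescence to track expression and on streptavidin fluorescence to track reagent binding. A clone's polyreactivity label is taken from the gate it came out of. The reagent was 10% biotinylated, detergent-solubilized Sf9 membrane, applied for 1 hour at 4 °C to galactose-induced yeast display cells.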"}
{"sequence": "QVQHVESGGGLVQAGGSLRLSCAASGFIFRNYAMGWYRQAPGKERELVAAISSRGGSTYYADSVKGRFTISRDNAKNTVYLQMNRLKPEVTAVYYCARRYFYTYGYWGQGSQVTVSS", "polyreactivity (PSR sort gate)": "high polyreactivity"}
{"sequence": "QVQLVESGGGLVQAGGILRLTSAGSGFNYYPYDMGWSRQAPGKERELVAAITQSGGSTYYADSVKGRFTISRDNAKITVYLQMISLKPEDTAVYSCNADTRGEYTYVSWYDYWGQGSQVTVSS", "polyreactivity (PSR sort gate)": "low polyreactivity"}
{"sequence": "QVQLVESGGGLVQAGGSLRLSCAASGIIFVDYAMGWYRQAPGKEREFVAAITWSGGSTRYADSVKGRFTISRDNAKNTVYLQMNSLKPEDTAVYYCAALGYNVSSRGYYYWGQGTQVTVSS", "polyreactivity (PSR sort gate)": "low polyreactivity"}
{"sequence": "QVQLVESGGGLVQAGGSLRLSCAASGYIFIVNAMGWYRQAPGKERELVAAINSSGGNTYYADSVKGRFTISRDNAKNTVYLLMNSLKPEDTAVYYCAADQAKDISVEYDYWGQGTQVTVSS", "polyreactivity (PSR sort gate)": "low polyreactivity"}
{"sequence": "QDQLVESGGGLVQAGGSLRLSCAASGSIFDVNAMGWYRQAPGKERELVAAISDSGGSTYYADSVKGRFTISRDNAKNTVYLQMNSLKPEDTAVYYCNADWSWYNYYDFDYWGQGTQVTVSS", "polyreactivity (PSR sort gate)": "low polyreactivity"}
{"sequence": "QVQLVESGGGLVQAGGSLRLSCAASGSIVHGYTMGWYRQEPGKERELVAAINSGDGSTYADSVKGRFPISRDNAKNTVYLQMNSLKPEDTAVYYCAADDSTLADGGDYWGQGTQVTVSS", "polyreactivity (PSR sort gate)": "low polyreactivity"}
{"sequence": "QVQLVESCGGLVQAGGSHRLSCAASGFTFTRNALGWYRQAPGKERELVAAISIRGSSTYYADSVKGRFTISRDNAKNTVYLQMNILKQEDTAVYYCSAPTFSLHGTYGYWGQGTQVTVSS", "polyreactivity (PSR sort gate)": "high polyreactivity"}
{"sequence": "QVQLVESGGGLVQAGGSLRLSCAASGITFGRNTMGWYRQAPGKERELVAAIDSGGNTYADSVKGRFTISRDNAKNTVYLQMNSLKPEDTAVYYCAVDGGEFSSYGYWGLGTQVTVSS", "polyreactivity (PSR sort gate)": "low polyreactivity"}
{"sequence": "QVQLVESGGGLVQAGGSLRLSCAASGSTFYRYPMGWYRQAPGKERELVAGITGSGRRTYYADSVKGRFTISRDNAKNTVYFQMNSVKPEDTAVYYCNKRRASWSPAGGTYNYWGQGTQVTVSS", "polyreactivity (PSR sort gate)": "low polyreactivity"}
{"sequence": "QVQLVESGGGLVQAGGSLRLSCAASGSTFDVNAMGWYRQAPGKERELVAAISFSGGSTYYADSVKGRFTISRDNAKNTVYLQMNSLKPEDTAVYYCADYDYWGQGTQVTVSS", "polyreactivity (PSR sort gate)": "low polyreactivity"}
{"sequence": "QDQLVESGRGLVQAGGSLRLSCAASASIFTKYTMVWYRQAPGKERELVAAITLRGTSTYYADSVKGRFTISRDNAKKTVYLQKNSLKPEDTAVYYCNILYSWVVAYDYWGQGTQVTLSS", "polyreactivity (PSR sort gate)": "high polyreactivity"}
{"sequence": "QVQLVESGGGLVQAGGSLRLSCAASGSILSPNAMGWYRQAPGKERELVADISSVGSTYYADSVKGRFTISRDNAKNTVYLQMNSLKPEDTAVYYCAAEFRATDGIGYDYWGQGTHVTVSS", "polyreactivity (PSR sort gate)": "low polyreactivity"}
{"sequence": "QVQLVESWGGLVQAGGSLRLSCAASGIIFAAYAMGWYRQAPGKERELVATITSSGGSTFYADSVKGRFTISRDNAKNTVYLQMNSLKPEDTAVYYCAADTWGLWFWGPLFSKYGYWGQGTQVTVSS", "polyreactivity (PSR sort gate)": "low polyreactivity"}
{"sequence": "QVQLVESGGGLVQAGGSLRLSCAASGITLNRNAMGWYRQAPGKERELVARISRRGGTTYYADSVKGRFSISRDNAKNTVYLQMNSLKPEDTAVYYCNAGPYGGNPFDYWGQGTQVTVSS", "polyreactivity (PSR sort gate)": "high polyreactivity"}
{"sequence": "QVQLVESRGGLVQAGGSLRLSCAASGITLYGYAMGWYRQAPGKERELVAAISRSGSSTYYADSVKGRFTISRDNAKNTVYVQMNSLKPEDTAVYYCNSEKYYLAYLLPFNYWGQGTQVTVSS", "polyreactivity (PSR sort gate)": "high polyreactivity"}
{"sequence": "QVQLVESGGALVQAGGSLRLSCAASGSTFFINAMGWYRQAPGKERELVAAITSTDSTTYADSVKGRFTISRDNAKNTVYLQMNSLKPEDTAVYYCAKESIGQDPVSGAWARHEYDYWGQGTQVTVSS", "polyreactivity (PSR sort gate)": "low polyreactivity"}
{"sequence": "QVQLVESGGGLVQAGGSLRLSCAASGSIFGGYDMGWYRQAPGKESELVASISGSSSTYYADSVKGRFTISRDNAKNTVYFQMNSLKPEDTAVYYCAVDYHQAWPSADYWFEYDYWGQGTQVTVSS", "polyreactivity (PSR sort gate)": "low polyreactivity"}
{"sequence": "QVQLEESGGGLVQAGGSLRLSCAASGSIFPFYAMGRYRQAPGKERELVAAISDRGGSTYYADSVKGRFTISRDNAKNTVYLQMNSLKPEDTAVYYCAKGGGVSQGYTDEYDYWGQGTQVTVSS", "polyreactivity (PSR sort gate)": "low polyreactivity"}
{"sequence": "QVQLVESGGVLGQAGGSLRLSCAPSGSLIGGYAMGWYRQAPGKQRELVAAISYRGATTYYADSVKGRFTISRDNSKNTVYFQMNSLKPEDTAVYYCDVAARTRARVLYGYDYGGQGTQVTVSS", "polyreactivity (PSR sort gate)": "low polyreactivity"}
{"sequence": "QVQLVESGGGLVQAGGSLRLSCAASGSTLRRNAMGWYRQAPGTERELVAAITGSRGSTFYADSVKGRFTISRDNAKNTVYLQMNSLKPEDTAVYYCAVYKWSTRVSQYRYDYWGQGTQVTVSS", "polyreactivity (PSR sort gate)": "high polyreactivity"}
{"sequence": "QVQLVESGGGLVQAGGSLRLSCAASGRIFVYNAMGWYRQAPGKERELVAAITRGCSTYYADSVKGRFTISRDNAKNTVYLQMNSLKPEDTAVYYCASDYQRNDFRWYDYWGQGTQVTVSS", "polyreactivity (PSR sort gate)": "low polyreactivity"}
{"sequence": "QVQLVESGGGLVQAGGSLRLSSAATGFTFDKYAMGWYRQAPGKERELVAASSGSGGTTYYADSVKGRFTISRDNAKNTVYLQMNSLKPEDTAVYYCATRLYSIYSYGYWGHGTQVTVSS", "polyreactivity (PSR sort gate)": "high polyreactivity"}
{"sequence": "QVQLVESGGGLVQAGGSLRLSCAASGFTFYRNAMGWYRQAPGKERELVAAISWSGDSTYYADSVKGRFTISRDNAKNTVYLQMNSLKPEDTAVYYCDKERYFYYPWVTTYTSNYWGQGTQVTVSS", "polyreactivity (PSR sort gate)": "low polyreactivity"}
{"sequence": "QVQLVESGGGLVQAGGSLRLSCAASGIIFNYYAMGWYRQAPGKERELVAAISASGGSTYYADSVKGRFTISRDNAKNTVYLQMNSLKPEDTAVYYCNAAVLYRQYGRGDYWGQGTQVTVSS", "polyreactivity (PSR sort gate)": "low polyreactivity"}
{"sequence": "QVQLVESGGGLVQAGGSLRLSCAASGITFSSYAMGWYRQAPGKERELVAAISYGGGNTYYADSVKGRFTISRDNAKNTVYLQMNSLKPEDTAVYYCNTLYTSYSGLDYWGQGTQVTVSS", "polyreactivity (PSR sort gate)": "high polyreactivity"}
{"sequence": "QVQLVESGGGLVPAGGSLRLSCAASGSIFVKYALGRYRPAPGKERELVAAISRSGTRTYYADSVKGRFTISRDNAKNTVYLQMNSLKPEDTAVYYCAAAATTVRPYEYWGQGTQVTVSS", "polyreactivity (PSR sort gate)": "high polyreactivity"}
{"sequence": "QDQLVESGGGLVQEGGSLRLSCAASGRIFYFNARGWYRQAPGKERELVADISSGGRTNYADSVKGRFTFSRDNAKNSVYVQMNSEKPEDTAVYYCNSEPYTSSGGYRGYDFDYWGQGSQVTVSS", "polyreactivity (PSR sort gate)": "low polyreactivity"}
{"sequence": "QVQHVESGGGLVQAGGSLRLSCAASGRTLIYNAMGWYRQAPGKERELVAAITGGGGRTYYADSVKGRFTISRDNAKNTVYLQMNSLKPEDTAVYYCAVAGTVLSHMGYWGQGTQVTVSS", "polyreactivity (PSR sort gate)": "low polyreactivity"}
{"sequence": "QVQLVESGGGLVQAGGSLRLRCAASGRTFTYNAMVWYRQAPGKERELVPANNFSGVSTYYADSVKGRFTISRDNAKNTVYLQMNILKPEVTAVYYCAARGSARKSFPYPLEYWGQGTQVTVSS", "polyreactivity (PSR sort gate)": "high polyreactivity"}
{"sequence": "QVQLVESGGGLVQAGGSLRLSCAASGRIFRENAMGWYRQAPGKERELVAAISSGGSTYYADSVKGRFTISRDNAKNTVYLQMNSLKPEDTAVYYCAADLSWSRVVFGDYDYWGQGTQVTVSS", "polyreactivity (PSR sort gate)": "low polyreactivity"}
{"sequence": "QVQLLESGGGLVQAGGILRLSCSASGITFSVYDMGCYRQAPGKERELVASISSGGTSTYYADSVKGRFTISRDNAKNTVYFQMNSLKPEDTAVYYGAAYSYFNGDQYSYDYLGQGTQVTVSS", "polyreactivity (PSR sort gate)": "low polyreactivity"}
{"sequence": "QVQLVESGGGLVQAGGSLRLSCAASGSTFGNNAMGWYRQAPGKERELVASINWNGGSTYYADSVKGRFTISRDNAKNTVYLQMNSLKPEDTAVYYCADDRVWAYWTYGYWGQGTQVTVSS", "polyreactivity (PSR sort gate)": "low polyreactivity"}
{"sequence": "QVQHVESGGGLVQAGGSLRLSCAASGIFFFYGMGWYRQAPGKQRQLLAVISTGDTTDYADSVKGRSTISRDNAKNTVYLQMNSLIPEDTAVYYCAATGRSRSYSWSKLNYWGQGTQVTVSS", "polyreactivity (PSR sort gate)": "low polyreactivity"}
{"sequence": "QVQLVESGGGLVQAGGSLRLSCAASGSTFNIYVMGWYRQAPGKERELVADITTSGRTYYADSVKGRFTISRDNAKNTVYVQMNSLKPEDTAVYYCADATGTYGRGGYYWGQGTQLTVSS", "polyreactivity (PSR sort gate)": "high polyreactivity"}
{"sequence": "QVQLVESGGGLVQAGGSIRLSCAASGSTFRYYTMGWYRQAPGKERELVATITRDGRTYYADSVKGRFTISRDNAKNTVYLQMYSLKPEDTAVYYCNVRRAFSGWRGYDYWGQGTQVTVSS", "polyreactivity (PSR sort gate)": "high polyreactivity"}
{"sequence": "QVQLVESGGGLVQAGGSLRLSCAASGSIFYYYAMGLYRQAPGKERELVAAITRRGGNTYYADSVKGRFTISRDNAKNTVYLQMNSLKPEDTAVYYCNAPGFAWYTTKYDYWGQGTQVTVSS", "polyreactivity (PSR sort gate)": "low polyreactivity"}
{"sequence": "QVQLVESGGGLVQAGGSLRLSCAASGSIFGRYAMGWYRQAPGKERELVAAITRSGVSTYYADSVKGRFTISRDNAKNTVYLQMNSLKPEDTAVYYCNAYYPIRSSPNGYYYWGQGTQVTVSS", "polyreactivity (PSR sort gate)": "high polyreactivity"}
{"sequence": "QVQLVESGGGLVQAGGSLRLSCAASGSIFRKYAMGWYRQAPGKERELVAAITGSGGSTYYADSVKGRFTISRDNAKNTVYLQMNSLKPEDTAVYYCAAPFGWRPLPISKVTSDYWGQGTQVTVSS", "polyreactivity (PSR sort gate)": "high polyreactivity"}
{"sequence": "QVQLVESGGGLVQAGGSLRLSCAASGGIGSYAMGWYRQAPGKERELVAVITAGGDSTYYADSVKGRFTISRDNAKNTVYLQMNSLKPEDTAVYYCNTVYRSKRYQYDYWGQGTQVTVSS", "polyreactivity (PSR sort gate)": "high polyreactivity"}
{"sequence": "QVQLVESGGGLVQSGGSLRLSCAASGRTFYHYAMGWYRQAHGKERELVATITRNGGITYYADSVKGRFTISRDNAKNTVYLQMNSLKPEDTAVYYCIKRWGGPIQFDYWGQGTEVTVSS", "polyreactivity (PSR sort gate)": "low polyreactivity"}
{"sequence": "QVQLVESGGGLVQAGGSLRLSCAASGIIFRWYTMGWYRQAPGKERELVAAISTSTGSTYYADSVKGRFTISRDNAKNTVYLQMNSLKPEDTAVYYCAADYAYWNYESYYWGQGTQVTVSS", "polyreactivity (PSR sort gate)": "high polyreactivity"}
